From PMC3893232
Like-named read-outs stand apart in the source and are kept apart here.

Experiments:
SEC [1] = assay: SEC
SEC [2] = assay: SEC; remark: listed apart in the source

IgG1-Y407A
% monomer (SEC [1]): 1% | % monomer (SEC [2]): 5%

IgG1-Y407E (natural mixture of HL and (HL)2)
% monomer (SEC [1]): 90% | % monomer (SEC [2]): 95%
